Measured values reported in patent publication US20030124568A1 (published 2003).
Ends that are not written are not given here.

Experiments:
Assay in all cases: yeast two-hybrid cotransformation in Y190
[1] = molecular target: T1, amino terminus of the GIRK1 subunit cloned into the vector pDBLeu (rat, UniProt P04386 1-147; P63251 1-80, limits assumed)
T1 construct: Yeast two-hybrid bait with the GIRK1 N terminus alone; also called N terminus of GIRK1
Excerpt: (§1) The DNA (accession no.: U09243, EMBL datebase) coding for the carboxyl terminus or the amino terminus of the GIRK1 subunit was amplified by PCR starting from the plasmid “GIRK1NC-bait” using the primers GGIRK1-4s (5′-[…]-3′) and GGIRK1-as (5′-[…]-3′) or GIRK1-NC-s (5′ -[…]-3′) and GIRK1-N-as (5′-[…]-3′) and cloned into the vector pDBLeu. Each of the plasmids was cotransformed with the pPC86 plasmid. GIRK1NCprey2 (SEQ ID NO: 1 nucleotides 1011-1349) or with the plasmid GIRK1NCprey3 (SEQ ID NO: 1, nucleotides 500-1193) into the yeast strain Y190. […] It is evident that the interaction with Mogli takes place only in the presence of both intracellular portions of GIRK1.

[2] = molecular target: T2, carboxyl terminus of the GIRK1 subunit cloned into the vector pDBLeu (rat, UniProt P04386 1-147; P63251 180-501, limits assumed)
T2 construct: Yeast two-hybrid bait with the GIRK1 C terminus alone; also called C terminus of GIRK1
Excerpt: as §1

[3] = molecular target: T3, GIRK1-NC-bait (GAL4-DNA binding domain fused to the N terminus of the GIRK1 subunit, a linker sequence GSSGSS … (rat, UniProt P04386 1-147; P63251 1-80; P63251 180-501, limits assumed)
T3 construct: Yeast two-hybrid bait in pDBLeu, expressed in yeast strain Y190
Excerpt: as §1

B1: GIRK1NCprey3 (nucleotides 500-1193 of SEQ ID NO: 1, fragment of rat Mogli, in pPC86) (other)
chain: RIGMVGEGNIQSARYKKESKGGIIKPGSEADFSSSSSTGSISAPEVHMSTTGNKRASFSRNRGPHGRSNGAPSHKSGSSPPSPREKDLVSMLCRNPLSPSNIHPSYAPSSPSSSNSGSYKGSDCSPVMRRSGRYMSCGENHGVKPPNPEQYLTPLQQKEVTVRHLRTKLKESERRLHERESEIMELKSQLARMREDWIEEECHRVEAQLALKEARKEIKQLKQVIETMRS
notes: Residue range converted from the printed nucleotide range; also called prey plasmid; Mogli fragment
binding result [1]: no binding
binding result [2]: no binding

B2: GIRK1NCprey2 (nucleotides 1011-1349 of SEQ ID NO: 1, fragment of rat Mogli, in pPC86) (other)
chain: ESERRLHERESEIMELKSQLARMREDWIEEECHRVEAQLALKEARKEIKQLKQVIETMRSSLADKDKGIQKYFVDINIQNKKLESLLQSMEMAHNSSLRDELCLDFSFDSPE
notes: as for B1
binding result [1]: no binding
binding result [2]: no binding

B3: nucleotide region 1011-1193 of SEQ ID NO: 1 (overlap of GIRK1NCprey2 and GIRK1NCprey3) cloned into the plasmid pPC86 (other, not shown: small tags and cut ends)
chain: ESERRLHERESEIMELKSQLARMREDWIEEECHRVEAQLALKEARKEIKQLKQVIETMRS
modifications: also: fused to GAL4 activation domain with pPC86 linker and tail residues
notes: Residue range converted from the printed nucleotide range; also called 1NCprey23o construct
binding result [3]: no binding
